Residue numbers refer to the chain shown, from its start.
Legend:
[1] = biological target: Recombinant EBOV GP without transmembrane domain (Zaire ebolavirus, strain of GP not …, UniProt Q05320)
[2] = biological target: T1, Recombinant EBOV GP without transmembrane domain (Zaire ebolavirus, strain of GP not …, UniProt Q05320); experiment: SPR; conditions: both partners purified
T1 construct: also called recombinant GP; EBOV rGPdTM; source: bought: IBT Bioservices

[3] = biological target: T1, Recombinant EBOV GP without …; experiment: SPR; conditions: both partners purified; remark: listed apart in the source

B1: R2H1 (VHH)
VHH: EVLLQASGGGLVQPGGSLRLSCAASGLIFSINVMGWYRQTPGKQRELVASISRDDSTKYADSVKGRFTISRDNAKNTVYLQMNSLKPEDTAVYYCNTQTEGPVADWGTSHYDYWGQGTQVTVS
[1]
  binding result: binds

B2: R2A1 (VHH)
VHH: EVQLQASGGGLVQARGSLQLSCAAPGRPVRTYTMGWFRQAPGKEREFVAANNWRGTRYAGSVRGRFSISRDNSKNTVYLQMNSLKPEDTAVYYCACAVTADLLLSGNYFRGDDYDYWGQGTQVTVS
[1]
  binding result: binds

B3: R3G10 (VHH)
VHH: B2 VHH with L11S, R15G, I68T
[1]
  binding result: binds

B4: R3C11 (VHH)
VHH: B2 VHH with E1D, R15G, K43E, I68V, F109Y, Q119L
[1]
  binding result: binds

B5: R3H8 (VHH)
VHH: B2 VHH with R15G, R27H
[1]
  binding result: binds

B6: R2E6 (VHH)
VHH: B2 VHH with E1D, R15G, K43M, Y58H
[1]
  binding result: binds

B7: R2B4 (VHH)
VHH: B2 VHH with R15G, V98E
[1]
  binding result: binds

B8: EBOV-GP-A8 (VHH)
VHH: B2 VHH with V12A, R15G
notes: also called Bt-EBOV-GP-A8
[2]
  Kd: 2.3 nM
  koff: 7.2e-05 s⁻¹
  kon: 31000 M⁻¹ s⁻¹

B9: R2E4 (VHH)
VHH: B2 VHH with R15G
[1]
  binding result: binds

B10: EBOV-GP-C12 (VHH)
VHH: EVQLQASGGGLVQPGGSLRLSCTASGSIFSINAMGWYRQTPRKERELVAAISEGGSTKYGDSVKGRFTISRDFAKNTQMVYLQMNSLKAEDTAVYYCKAQTEGPIADWGTSQYEYWGQGTQVTVS
[2]
  Kd: 26.8 nM
  koff: 8.71e-05 s⁻¹
  kon: 3280 M⁻¹ s⁻¹

B11: R3B7 (VHH)
VHH: DVQLQASGGGLVQTGGSLRLACAGSGRSFNNYGMGWFRQAPGKERQFVAAISGNDHTTHYSDSVKGRFTISRDNAKSTVYLQMNSLKPEDTAVYYCAADRLGSFFFPRASPSDYGYWGQGTQVTVS
[1]
  binding result: binds

B12: EBOV-GP-B11 (VHH)
VHH: B11 VHH with D1E, S77T
[2]
  Kd: 35.9 nM
  koff: 0.00321 s⁻¹
  kon: 89800 M⁻¹ s⁻¹

B13: R3F12 (VHH)
VHH: DVQLQASGGGLVQAGGSLRLSCAASSGTFSSYTMGWFRQAPGKERELVARLSQSLTTLYADSVKGRFTISRDNAENTVYLQMNSLKPEDTGVYYCAAHPGTYGSAWLISPHDYAYWGQGAQVTVS
[1]
  binding result: binds

B14: EBOV-GP-H7 (VHH)
VHH: B13 VHH with A120T
[2]
  Kd: 17 nM
  koff: 0.0003 s⁻¹
  kon: 17000 M⁻¹ s⁻¹

B15: R2H11 (VHH)
VHH: EVQLQASGGGLVQAGGSTRLSCAGSGSIFSINAMGWYRQTPEKQRELVATISSSGSTKYGDSVKGRFTISRDNAKNTVYLQMNSLKPEDTAVYYCNTQTAGPVADWGTSHYDYWGQGVQVTVS
[1]
  binding result: binds

B16: EBOV-GP-E7 (VHH)
VHH: B15 VHH with A14P, G15R, T18L, G24A, P102L
[2]
  Kd: 34 nM
  koff: 0.00011 s⁻¹
  kon: 3500 M⁻¹ s⁻¹

B17: EBOV-GP-D1 (VHH)
VHH: EVQLQASGGGSVPPGGSLRLSCTASLRAFSTYTMGWFRQAPGKEREFVAASNWRGTDFHDSVRGRFIISRDNTEKTVDLQMNSLKPEDTAIYYCAADGSTWLKRSDYSYWGQGTQVTVS
[2]
  Kd: 11 nM
  koff: 0.00033 s⁻¹
  kon: 30000 M⁻¹ s⁻¹

B18: EBOV-GP-B5 (VHH)
VHH: B17 VHH with S11L, P13Q, P14A, R63K, E74K
[2]
  Kd: 11 nM
  koff: 0.00037 s⁻¹
  kon: 34000 M⁻¹ s⁻¹

B19: EBOV-GP-G6-neg+ (VHH)
VHH: DVQLVESGGGLVQAGGSLRISCAASGGALSDYNMGWFRQAPGKEREFVCVVTWSGGSTRYADSVNGRFTCSRDNAKNTVYLQMNSLKPEDTAVYYCAAAPLTPFQSLGDMKAYNYWGQGTQVTVSS
notes: also called Bt-sdAb-neg+
[3]
  Kd: 44 nM
  koff: 0.00015 s⁻¹
  kon: 3500 M⁻¹ s⁻¹

B20: EBOV-GP-H7-neg+ (VHH)
VHH: DVQLVESGGGLVQAGGSLRLSCAASSGTFSSYTMGWFRQAPGKERELVCRLSQSLTTLYADSVKGRFTCSRDNAENTVYLQMNSLKPEDTGVYYCAAHPGTYGSAWLISPHDYAYWGQGTQVTVSS
notes: also called EBOV-H7-neg+; Bt-sdAb-neg+
[3]
  Kd: 40 nM
  koff: 0.0014 s⁻¹
  kon: 35000 M⁻¹ s⁻¹

B21: R2D10 (VHH)
VHH: EVQLQASGGGLVEPGGPLRLSCAVSGINFNINHWGWYRQAPGKQREWVATIAIGGATDYADSLKGRFTISRDNMKNTVYLQMNSLRPEDTAVYYCNGVGSKWSDRWGQGTQVTVS
[1]
  binding result: binds

B22: R2G2 (VHH)
VHH: B21 VHH with P17S
[1]
  binding result: binds

B23: R2C8 (VHH)
VHH: B21 VHH with P17S, G55S, T68A, G107D
[1]
  binding result: binds

B24: R3F8 (VHH)
VHH: B21 VHH with P17S, L63V
[1]
  binding result: binds

B25: EBOV-GP-G6 (VHH)
VHH: DVQLQASGGGLVQAGGSLRISCAASGGALSDYNMGWFRQAPGKEREFVAVVTWSGGSTRYADSVNGRFTISRDNAKNTVYLQMNSLKPEDTAVYYCAAAPLTPFQSLGDMKAYNYWGQGTQVTVS
[2]
  Kd: 2 nM
  koff: 0.00015 s⁻¹
  kon: 70000 M⁻¹ s⁻¹

B26: EBOV-GP-A8-neg+ (VHH)
VHH: EVQLVESGGGLVQAGDSLQLSCAAPGRPVRTYTMGWFRQAPGKEREFVCANNWRGTRYAGSVRGRFSCSRDNSKNTVYLQMNSLKPEDTAVYYCACAVTADLLLSGNYFRGDDYDYWGQGTQVTVSS
[3]
  Kd: 0.95 nM
  koff: 5.8e-05 s⁻¹
  kon: 61000 M⁻¹ s⁻¹

B27: EBOV-GP-A8-fneg+ (VHH)
VHH: B26 VHH with C96S
notes: also called Bt-sdAb-neg+
[3]
  Kd: 0.69 nM
  koff: 9.1e-05 s⁻¹
  kon: 130000 M⁻¹ s⁻¹
